This is an account of results in publication PMC2693034.

Assay [1] concerns the target Qn(1-57), N-terminal domain of IcmQ (Legionella pneumophila). As to the kind of experiment: SEC. (In general: Size exclusion chromatography separates by hydrodynamic size, large species first.)
The target of assay [2] is IcmQ with a C-terminal 6xHis-tag (Legionella pneumophila). As to the kind of experiment: SEC.
Assay [3] shares this target. Kind of assay: […].

On to “Qn(1-57), N-terminal domain of IcmQ (domain or fragment)”, for which the stoichiometry N (commonly the number of molecules, sites or subunits per partner or assembly) in assay [1] is 2.
Consider “IcmQ with a C-terminal 6xHis-tag (natural protein)”, for which the stoichiometry N in assay [2] and in assay [3] was 2 throughout.
